In patent publication US20250115680A1 (PROFOUNDBIO US, published 2025):

T1: human PTK-7 recombinant protein (human, UniProt Q13308 31-704, limits assumed)
T1 construct: also called human PTK7 protein
T1 sequence (looked up): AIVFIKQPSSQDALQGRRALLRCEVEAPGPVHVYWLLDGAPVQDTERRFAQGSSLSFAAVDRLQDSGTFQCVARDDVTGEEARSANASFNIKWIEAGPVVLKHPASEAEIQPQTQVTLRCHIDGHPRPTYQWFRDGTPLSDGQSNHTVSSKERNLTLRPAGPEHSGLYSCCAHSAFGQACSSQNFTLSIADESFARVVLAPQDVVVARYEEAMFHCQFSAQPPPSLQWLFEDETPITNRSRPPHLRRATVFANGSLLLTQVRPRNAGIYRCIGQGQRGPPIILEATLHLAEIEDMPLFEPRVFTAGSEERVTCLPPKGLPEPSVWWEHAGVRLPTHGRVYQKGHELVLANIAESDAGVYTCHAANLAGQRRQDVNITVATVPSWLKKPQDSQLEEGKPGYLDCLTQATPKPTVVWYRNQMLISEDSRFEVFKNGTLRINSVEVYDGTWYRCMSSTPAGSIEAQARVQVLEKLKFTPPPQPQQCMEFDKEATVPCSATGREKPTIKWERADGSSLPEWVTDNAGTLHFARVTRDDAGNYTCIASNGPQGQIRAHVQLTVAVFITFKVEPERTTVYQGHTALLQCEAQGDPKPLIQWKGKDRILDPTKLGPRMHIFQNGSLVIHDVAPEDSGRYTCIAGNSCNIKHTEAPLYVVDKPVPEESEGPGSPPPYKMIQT

T2: human PTK7 on the surface of PTK7-expressing tumor cell lines (human, UniProt Q13308 31-1070)
T2 construct: whole, on cells
T2 sequence (looked up): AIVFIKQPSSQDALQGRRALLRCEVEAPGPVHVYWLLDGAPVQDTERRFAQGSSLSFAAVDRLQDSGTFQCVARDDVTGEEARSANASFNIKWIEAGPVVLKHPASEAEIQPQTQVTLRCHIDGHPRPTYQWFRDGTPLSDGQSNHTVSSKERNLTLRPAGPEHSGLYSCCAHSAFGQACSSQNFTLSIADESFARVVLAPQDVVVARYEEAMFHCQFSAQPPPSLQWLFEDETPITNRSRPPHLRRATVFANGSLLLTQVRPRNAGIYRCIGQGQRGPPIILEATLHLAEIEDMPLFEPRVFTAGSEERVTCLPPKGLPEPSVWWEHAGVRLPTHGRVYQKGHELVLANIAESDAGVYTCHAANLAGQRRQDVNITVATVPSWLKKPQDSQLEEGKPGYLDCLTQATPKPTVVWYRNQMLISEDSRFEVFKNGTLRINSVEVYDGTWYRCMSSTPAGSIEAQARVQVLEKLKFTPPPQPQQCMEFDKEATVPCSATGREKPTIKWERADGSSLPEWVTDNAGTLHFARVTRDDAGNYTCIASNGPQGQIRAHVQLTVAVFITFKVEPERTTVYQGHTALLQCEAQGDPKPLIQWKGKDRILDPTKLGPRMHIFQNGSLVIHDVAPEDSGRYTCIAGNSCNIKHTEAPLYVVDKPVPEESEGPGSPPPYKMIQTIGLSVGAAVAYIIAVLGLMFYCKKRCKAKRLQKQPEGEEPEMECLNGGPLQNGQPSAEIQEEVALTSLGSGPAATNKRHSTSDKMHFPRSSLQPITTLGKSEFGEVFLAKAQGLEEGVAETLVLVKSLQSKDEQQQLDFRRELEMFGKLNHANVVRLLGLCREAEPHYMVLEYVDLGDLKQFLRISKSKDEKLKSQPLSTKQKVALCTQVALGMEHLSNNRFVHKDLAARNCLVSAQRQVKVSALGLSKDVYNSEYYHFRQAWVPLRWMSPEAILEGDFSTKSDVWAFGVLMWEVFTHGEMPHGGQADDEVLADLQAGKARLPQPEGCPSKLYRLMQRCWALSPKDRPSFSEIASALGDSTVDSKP

B1: humanized antibody 13C4 (antibody, V domains shown)
VH: QVQLVESGGGLVKPGGSLRLSCAASGFAFSTYDMFWIRQAPGKGLEWVSTISSGGGYTYYPGSVKGRFTISRDNAKNSLYLQMNSLRAEDTAVYYCVRPLLRDSYFYFDVWGQGTMVTVSS
VL: EIVMTQSPATLSVSPGERATLSCRASSSVSSSYLHWYQQKPGQAPRLLIFRTSNLASGIPARFSGSGSGTEYTLTISSLQSEDAAVYYCQQYSGYPLTFGQGTKLEIK
notes: Only variable regions are tied to 13C4; It was detected with anti-human Fc
B2: humanized antibody 2C8 (antibody, V domains shown)
VH: QIQLVQSGAEVKKPGASVKVSCKASGYTFTTYGMSWVRQAPGQGLEWMGWINTHSGVPTYVDEFKGRVTMTLDTSTSTAYMELSSLRSEDTAVYYCARSPFDYGSRGAWFVYWGQGTTVTVSS
VL: DVVMTQSPDSLAVSLGERATINCRSSQSIVHNSGDTYLEWYQQKPGQPPKLLIYKVSNRFPGVPDRFSGSGSGTDFTLTISSLQAEDLAVYYCFQGSHVPWTFGGGTKVEIK
notes: Only variable regions are tied to 2C8 by name; It was detected with anti-human Fc
B3: humanized antibody 2C5 (antibody, V domains shown)
VH: QVQLVQSGAEVKKPGASVKVSCKASGYTFTDYYINWVRQAPGQGLEWMGDINPYSGGPVYNQKFMARVTMTVDKSINTAYMELSRLRSDDTAVYYCARGDYYGSNYNYWGQGTLVTVSS
VL: EIVLTQSPATLSVSPGERATLSCRASQNIGTSIHWYQQKPGQAPRLLIKFASESISGIPARFSGSGSGTEFTLTISSLQSEDIAVYYCQQSNNWPYTFGQGTKLEIK
notes: Only variable regions are tied to 2C5; It was detected with anti-human Fc, so it has a human Fc

Target: T1, human PTK-7 recombinant protein
Experiment: ELISA, plate-coated human PTK7 protein, anti-human Fc-HRP detection
Method: Binding specificity property was tested by ELISA according to a standard protocol. Specifically, 96-well micro-plates were coated with 2 μg/mL human, cynomolgus, mouse, and rat PTK-7 recombinant protein in PBS 100 μL per well, incubated overnight at 4° C. Plates were washed twice by TBS+0.5% Tween20. 200 μL of blocking buffer (2% BSA in PBS) was added to each well and incubated at 37° C. for 2 hours. Plates were washed using the buffer mentioned above. Serially diluted antibodies were added to the ELISA plate with 100 μL per well and incubated for 1 hour at room temperature. Then plates were washed for 3 times. After washing, HRP conjugated anti-human Fc antibody solution (abcam, ab98624, diluted with blocking buffer) was added to the plate with 100 μl per well. The plates were incubated at room temperature for 1 hour and then washed for 3 times. Then TMB solution was added to plates with 100 μl per well, placed at room temperature for 5-15 mins, then the stop solution (2M H₂SO₄) was added with 50 μl per well. Finally, the result was measured by absorbance at A₄₅₀ and A₆₃₀.

| Binder | EC50 [nM] |
| --- | --- |
| B1 | 0.022 |
| B2 | 0.032 |
| B3 | 0.027 |

Target: T2, human PTK7 on the surface of …
Experiment: flow cytometry on PA-1 cells, PE anti-human Fc detection, MFI(PE)

| Binder | EC50 [nM] |
| --- | --- |
| B1 | 0.808 |
| B2 | 0.562 |
| B3 | 0.711 |

Target: T2, human PTK7 on the surface of …
Experiment: flow cytometry on MDA-MB-231 cells, PE anti-human Fc detection, MFI(PE)

| Binder | EC50 [nM] |
| --- | --- |
| B1 | 0.828 |
| B2 | 0.423 |
| B3 | 0.506 |

Target: T2, human PTK7 on the surface of …
Experiment: flow cytometry on MDA-MB-468 cells, PE anti-human Fc detection, MFI(PE)

| Binder | EC50 [nM] |
| --- | --- |
| B1 | 0.558 |
| B2 | 0.481 |
| B3 | 0.543 |
